Data from a protein production outcome set (Wang et al. 2014).

Assay: label from the status in PepcDB records

**Q.** Which protein production does the source give for “MKKVKIFSIVLPLIYTSFMLYVTYKVYNGLRYRSLDLGIFTQSLYSLSEGKLFYNTVEFQLYEVHTHFGVHFQPILFLLTPLFLIKRDAYTLIIIQTLALGTSVYLAYKLAVKELGEKKGFALAILYSCNSSLISINVFEFHPVSLAVPLFLLAYKFLREESPLFYVISTLILLTKEDAFLGVLSITAWKILKEGLSVETLKKNKKIILFTILTLLYGIFTIKVVIPKFGGEYIYSNLYMEPRLDRRKLTYFLLFNLTFALLPLLNFFAILSLLPPWLECLLASRESQTMFGFHYPYMLVPLSFVISLDVAKKLDWKILRNLAILGVISSLITLPITNHLPKEQNPLVYPTVITPIPGKEASWEAIKITRELEGPIYTQPEFYPALATRLDVYVYPKNVKPKIILVNLNTYYGRRALERIKAFRVNLSEYKKVFEKDGVLIMVRKD” here?
**A.** The protein production was “failed”.

**Q.** Which protein production does the source give for “MKKWFPALLFSLCVSGESSAWNNIVFYSLGDVNSYQGGNVVITQRPQFITSWRPGIATVTWNQCNGPEFADGFWAYYREYIAWVVFPKKVMTQNGYPLFIEVHNKGSWSEENTGDNDSYFFLKGYKWDERAFDAGNLCQKPGEITRLTEKFDDIIFKVALPADLPLGDYSVKIPYTSGMQRHFASYLGARFKIPYNVAKTLPRENEMLFLFKNIGGCRPSAQSLEIKHGDLSINSANNHYAAQTLSVSCDVPANIRFMLLRNTTPTYSHGKKFSVGLGHGWDSIVSVNGVDTGETTMRWYKAGTQNLTIGSRLYGESSKIQPGVLSGSATLLMILP” here?
**A.** The protein production was “not failed”.

**Q.** For “MKLAMKLRTRLFLSISALITVALLGLLLGLVSVMQMARTQESLIQHNFAILDLGLKLRQNLGDQLVLMTGATRNPPELEKIQRQFEELLEEASAQDTQEDVRNGLEGTWVDYRRFIDALKQFGTDPRGIRGNPQLSESFDSLRNGLLNVHRKALENISSAEINSRDRALWIAGLLGLVGLAVLCIGFVTAHGIARRFGAPIEALAKAADRIGEGDYEVTLPISSAAEMNLLTRRFGIMAEALRQHQATNVDELLAGQQRLQAVLDSIDDGLLMIDRQGHLEHLNPVAQRQLGWDESRLGQSLGEALSRPELDEQLHLVLRGGTLERAPEDLAIDIDGESRLLTYSMTPVSHTKGHILGAVMVLHDVTEQRAFERVRSEFVLRASHELRTPVTGMHMAFGLLQERLHFAPESREADLLNTVTEEMQRLMQLINDLLNFSRYQNGLQKLKLAPCSIETLLEEARARYEGQAQEQEIVLMLDIQEPMPRLHADQSQLERVLDNLLDNALRHTPPNGLIRLQARRHGERAIISVEDNGEGIAYGQQGRIFEPFVQVGRKKGGAGLGLALCKEIVQLHGGRMGVYSRPGQGTQFYMALLL”, which protein production is on record?
**A.** Its protein production is “failed”.

**Q.** Which protein production does the source give for “MKLATKKNGTRDGLLMVVSKDLTRCVPATEVFHPRNLAPTMQVALDNWEAVAPQLEEIYTALNNGTVAGFEEFEAHYCESPLPRAYQWADGSAYVNHVELVRKARGAEMPESFWTDPLMYQGGSDAFIGPCDNIEFASDEWGIDFEGEVAVVTGDVPMGASIAEAQESIRLIMLVNDVSLRGLIPAELAKGFGFFQSKPSSAFSPVAVTPDELGDEWYENKVHLPLVSTYNHKPFGRPNAGVDMTFDFADLIVHATKTRPLSAGAIIGSGTVSNKQGTDHGTSIEEGGVGYSCIAEVRMIETIRDGKPTTNFMSFGDSIKLEMFDVEGNTIFGAIDQQVSQYLKH” here?
**A.** The protein production was “failed”.

**Q.** For “MKLDDLNLFRQVVENGSYTAASRKTLIPVATITRRIQALEDSLDIRLLNRHARKLSLTEAGQKFYDECAPILATLVNTSEYLGEECRGAAGKLKIAAPSNLTKRMIQPILNKFMLLYPDISINLTMSNQPEQLDPTDWDIIFRVGKQRDSSLIARQIGSLEDILVASPSYLEKNSEPTHAQELHKHSLLKGNPLMRWRLTNKDGESVTITDAGRFEASELNVIRMACSNGLGITLMPDIMISQYLEEGSLIRVLSDWSANPRDIYMIYNYKDHQPEKVRLFIDFVSNHIPD”, which protein production is on record?
**A.** The protein production was “failed”.

**Q.** For “MKLELGNIFIKNVEFGEKTEVKDGVLYISSEEIEKIVLEDERIVSVNVELARPGESIRIAPVKDVIEPRVKIGDESKIFPGIINKVKTVGSGRTHVLLGACVVTCGNIVGFQEGVIDMSGPTAKYTPFSKTNNICIVIKAKDGIDTHDYEEAARIAGLKIGAYVGEAGREVEPDEVIVYETKPLLKQVKEYPDLPTVAYVHMLQSQGLLHDTYYYGVDAKQIVPTFMYPTEIMDGAIISGNCVAPCDKVTTFHHLNNPVIHDLYKRHGKDLNFIGVILTNENVFLVDKERSSDMVAKLIEFLGVDGVLVTEEGYGNPDTDLMMNCRKCSEVGANVVLITDEFPGKDGKSQSIADATKEADAVVSCGQGNLVVHFPAMEKIIGTLDYVEMMIGGYKGCLNEDGSMDAELQIIIASTIANGYNHLTARYY”, which protein production is on record?
**A.** Its protein production is “failed”.

**Q.** With “MKLERKNSGIIFLIFGVVFVLNALNPVMELLYIKAKGEIAEAKIVAYDFIQRSSRSGRGSSYKYIPIIEFFDGKEIVQVPVTMNSLNEELDIIGLDVKVSYLKNTPSKVIIDDKLFWLYEISNSLVVVGSFLLMVMLSQMSVETYRGRELTFNVPTKNKIIFLISGLPGVIGTFLSFYYGFITLKYNGLGFTSGTLILSLLIIGVYLLGIVNFLKIKNNYWG” as the sequence, how does the protein production read?
**A.** Its protein production is “failed”.

**Q.** Which protein production does the source give for “MKLIAVLNLLNQLSNKNSLEEYLNGVIDFLSGWTGCENIGIRVLREAGLAPYVVHRGFDKDFIASESCISVEGDECVCLRVLKQQFKSEDQDHISAAGTYYAPNFYRYVEELREDQLLNFRGLCAHKQFKSLAVIPLLHQGKVVGAIHIADIKDGVFSEEDIHFIETIRPLVAEAIYRHNLEKALEHHHHHH” here?
**A.** Its protein production is “failed”.

**Q.** With “MKLIVVTTPTFFVEEDKIITALFEEGLDILHLRKPETPAMYSERLLTLIPEKYHRRIVTHEHFYLKEEFNLMGIHLNARNPSEPHDYAGHVSCSCHSVEEVKNRKHFYDYVFMSPIYDSISKVNYYSTYTAEELREAQKAKIIDSKVMALGGINEDNLLEIKDFGFGGAVVLGDLWNKFDACLDQNYLAVIEHFKKLKKLADLEHHHHHH” as the sequence, how does the protein production read?
**A.** The protein production was “not failed”.

**Q.** With “MKLKRKILALLMAALLAVSLAGCGQTSQAPANPPAAPEAGTPTERTVTDMAGRTVTLPAEVKTVGTFGSIGVLNAFVETLSAGERLANEGSPSFVKSPTWEKYQYQFTPHIKNLKPFQGADSELLMENILAAKPDVCLTMSADLTEQLEKQGLNVVQLSWTKTEDVKECITLLGEVLNQQEVAADYLKYFDDMLAKAADLTKDIKDADKKTVVYGNVSKFSQPHVIAEWWIDKAGGISVTSEAMTKANKESLTYTLEDLLKWNPDVMFVASAAEKKEVLADARLGEITAVKNGAIYIVPRIAHVWGNRTTEQPLTIMWAMNKLYPEIVTDSQLAEDISYFYSHFFKYDFNADQLKEIMGK” as the sequence, how does the protein production read?
**A.** The protein production was “failed”.

**Q.** For “MKLKTEPLSNEKNFSKVKKALSSIPQVRDQKFEEETNTVTIKVVCCSPEKVMDKLCSKGRGAIKLIETIDPAKHVAQKPKEPEKPKEAEKPKEPEKPKPAAAPAQGDPSSQRVTHGYNPPPMMGHPVPWSDGPNYGWSRPNGYDERPIYNSYGGWQPPPSQYGGRSHYEEEQPSCSIM”, which protein production is on record?
**A.** Its protein production is “failed”.

**Q.** Which protein production does the source give for “MKLLLIGYGNVGKAFRRLLHEKKDNYPILQGVEIAGIITRQGLMVGDKENFSPDKQLTVLEAIDYINPDVIVDMSVPNYKDGEPSVSAYIKALSRKIHVITVNKAPLALKFREIFEVAEKTGAKIGFQGTVMSGTPSINLFRIQPVAEVSRIRGILNGTTNYILTRIYEGLSFNEALKEAKEKGYAEEDPTLDLNGFDAAAKLTILSNFIMNRSLKLGDFKFKGITEITNEEIRRAKSEGKKIKLIAYADNYVVQVSPQIIGPQDPLYYIDGVENALEIQNEIQRIIIRGPGAGPINAAYGALSDLVLLLEGCL” here?
**A.** Its protein production is “failed”.

**Q.** With “MKLLSQLLLFTSLTFPLSSFAALGEHPIILIHGFQAGQLQTKPNHDAVVADGKNYWQDYWLAKADDRIDWPSQERVAGKISTDYIWPKLQELSKNNTCKNGCILVTHSTGDLVARHLLDNQENW” as the sequence, how does the protein production read?
**A.** The protein production was “failed”.

**Q.** With “MKLNVKMLSVTLGLFTSHAFAHTVYENARIYTVNDQQPTASVLVVEQGKIIYVGGNDGAKQFKATAAELFDLEGKTVLPGFIESHAHPATVAVMQAGDFVYVDGAASLTQILNQLKDYLAAHPKANYLLAQGFNVASLGLPQGALPTAADLDTVSTSIPIVVYDSGMHAGWANSAALKIAHVDANTPDPISGKHYFERDNKGNPTGFMHESAMHNVVDAQQFNTVENVAEQLKPILNTYHSLGFTAITDVGDTFSTTTAAIARLNDQGKLKVYYQRGYFYDAAKSTEQNIASLKALREKYNRGNLSMNLYKLFMDGTIEMDSGAMFKPYPNGNIVEPFLSQKQINDNVAAALKAGFSVHVHAIGDKAQQSILDAFEASKNINPHLARVIAHNQVFEPQGVQKFAAMKDNLFLQTTPNWTVLNEKDETKTKIGSDAYNHQYLLGQVVREGVAVTFGSDYPANTFDAVNPFSQMYHAIKRGQPNAGYLPPTDAAMTLDQSLRAYTINGAKQLGISDITGSLEKGKNADFIIVDTDIGSVDLEKLKNTNVLATYFKGEKVY” as the sequence, how does the protein production read?
**A.** The protein production was “failed”.

**Q.** With “MKLPPGFSISVWANVPDARTMTLGDKGTVFVGSKSAGNVYAITENAGKRQIRIIASKLKMPNGVAFHDGALYVSSVNRILRFDNIENTLDQPLPPRIITADYPKETYHGWRFIAFGPDGWLYVPVGSSCNVCETDLEHYALISRIRPDGSNYEVFAKGVRNTEGFDWHPVTKALWFTDISREWMGDNLPPDELNHASNQGLDFGFPYCHGKEVSDPKLGAKRDCNKFIPPAVELDPHVAPMGMRFYTGTMFPAEYHNGIFIAEHGSWNRSTKIGYRLEWVQLEVNEVARKEIFAEGWLQENEAWGRPVDVLVMPDGALLVSDDMAGVVYRISYDQPLEHHHHHH” as the sequence, how does the protein production read?
**A.** Its protein production is “not failed”.

**Q.** For “MKLQLYVLRTVATRILGAALILMSVLQILDLLDVTSDILDRGLGMAGVGYYAALRLPRLFEQVAPIAVLAGGLFAFSQLARESAIVAMRASGISGYRIVGMAVPAAVAVMLLDALCGQVLAPRADPTLADWWRNTTPVAERKEPVPRTFRAGADLVIGANASADGRTITGVTIFRRDSKGILVEKVEAPAARYDGKAWTLEQPKTTRFAGDLSQASTAAATSWPTALRPQDVQGLFGDDSMPTAASARRALENGGSDRPESFYATHLQAAFASPFVSLVMLLLSAPVALANFRSGQGAVLLTGGLAAGLMFLVANGMLTALGESGALTPFLAVWAAPAIFGALAVRTFLALEG”, which protein production is on record?
**A.** The protein production was “failed”.

**Q.** Which protein production does the source give for “MKLQVLPLSQEAFSAYGDVIETQQRDFFHINNGLVERYHDLALVEILEQDRTLISINRAQPANLPLTIHELERHPLGTQAFIPMKGEVFVVVVALGDDKPDLSTLRAFITNGEQGVNYHRNVWHHPLFAWQRVTDFLTIDRGGSDNCDVESIPEQELCFA” here?
**A.** Its protein production is “not failed”.

**Q.** With “MKLRLRHHETRETLKLELADADTLHDLRRRINPTVPSSVHLSLNRKDELITPSPEDTLRSLGLISGDLIYFSLEAGESSNWKLRDSETVASQSESNQTSVHDSIGFAEVDVVPDQAKSNPNTSVEDPEGDISGMEGPEPMDVEQLDMELAAAGSKRLSEPFFLKNILLEKSGDTSELTTLALSVHAVMLESGFVLLNHGSDKFNFSKELLTVSLRYTLPELIKSKDTNTIESVSVKFQNLGPVVVVYGTVGGSSGRVHMNLDKRRFVPVIDLVMDTSTSDEEGSSSIYREVFMFWRMVKDRLVIPLLIGICDKAGLEPPPCLMRLPTELKLKILELLPGVSIGNMACVCTEMRYLASDNDLWKQKCLEEVNNFVVTEAGDSVNWKARFATFWRQKQLAAASDTFWRQNQLGRRNISTGRSGIRFPRIIGDPPFTWFNGDRMHGSIGIHPGQSARGLGRRTWGQLFTPRCNLGGLN” as the sequence, how does the protein production read?
**A.** The protein production was “failed”.

**Q.** With “MKLSATIAIILLNWNGWRDTVDCVESCRKLDYPNFRIVIVDNGSTDGSEAILRERFPDVELIQTGANLGFAGGNNAGIRHALVRGADYVWLLNNDTVVEPGALGALVRVAESDPRVGMVGSKIVYFDDPWLLWFAGAVIDPERPHRPFHRGLHERDTGQYDRVAETGYVTGCSLLARREMMAEVGMLDDDLFLYFEDADWSARAARAGWKLLYVPDSVVRHKESVSSGGAASPRLVYYTARNRLYFVRRNFPAKLAAALCYDLFEHVLVNVKKGRFPLAVAGCRGIRDFLAGKIGPMPLEHHHHHH” as the sequence, how does the protein production read?
**A.** Its protein production is “not failed”.
